Experimental data: patent US20060270837A1 (published 2006)

T1: TR10 (human, UniProt Q9UBN6 56-211, limits assumed)
T1 construct: The construct coated in the specificity phage ELISA is not described; also called TRAIL-R4; DcR2
T1 sequence: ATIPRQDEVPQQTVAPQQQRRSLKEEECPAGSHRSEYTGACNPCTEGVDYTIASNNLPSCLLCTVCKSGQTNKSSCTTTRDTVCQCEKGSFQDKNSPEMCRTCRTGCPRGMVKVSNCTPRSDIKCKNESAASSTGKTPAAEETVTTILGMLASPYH

T2: TR4-Fc fusion protein (human, UniProt O00220 109-240)
T2 construct: also called TR4:Fc receptor; not shown: Fc region
T2 chain: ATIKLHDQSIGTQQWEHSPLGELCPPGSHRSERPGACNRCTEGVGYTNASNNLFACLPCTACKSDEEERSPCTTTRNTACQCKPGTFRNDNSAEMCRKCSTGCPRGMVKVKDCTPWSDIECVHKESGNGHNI


Tests used:
[1] = target: T3, TR7 (human, UniProt O14763 52-184); assay: specificity phage ELISA, antigen coated at 1 ug/ml, anti-M13-HRP detection
T3 construct: The construct coated in the specificity phage ELISA is not described; also called TRAIL-R2; DR5
Experimental: (§1) Flexible 96-well plates (Falcon) were coated overnight at 4° C. with each antigen (1 μg/ml). All antigens were coated in PBS. After coating, the solutions were removed from the wells, and the plates were blocked for 1 hour at room temperature in MPBS. The plates were washed 3 times with PBS and then 50 μl of pre-blocked phage was added to each well. The plates were incubated at room temperature for 1 hour and then washed with 3 changes of PBST followed by 3 changes of PBS.
(§2) To each well, 50 μl of an anti-M13-HRP conjugate (Pharmacia) at a 1 in 5000 dilution in MPBS was added and the plates incubated at room temperature for 1 hour. Each plate was washed three times with PBST followed by three times with PBS.
(§3) Fifty μl of TMB substrate was then added to each well, and incubated at room temperature for 30 minutes or until colour development. The reaction was stopped by the addition of 25 μl of 0.5 M H₂SO₄. The signal generated was measured by reading the absorbance at 450 nm (A₄₅₀) using a microtitre plate reader (Bio-Rad 3550).

[2] = target: T1, TR10; assay: as above
Experimental: as §1, §2, §3

[3] = target: BLyS (human, UniProt Q9Y275 134-285); assay: as above
Experimental: as §1, §2, §3

[4] = target: T2, TR4-Fc fusion protein; assay: SPR (BIAcore 2000), TR4:Fc amine-coupled on CM5 chip, IgG1 as analyte 0.75-65 nM, TR2:Fc control cell, double reference subtraction, 1:1 Langmuir fit, 25 C
Experimental: The optimal pH for this coupling was analyzed using preconcentration experiments ranging from pH 4-7 and was determined to be pH 4.0 for both the TR4 and the TR2 receptor. Amine coupling was used to covalently bind each receptor (fc) to the dextran matrix on the CM5 sensor chip. The immobilization experiment was performed using the manual injection mode. The entire immobilization experiment was performed at 5 μL/min. A 3-minute injection of EDC/NHS (1:1) was applied to each flow cell to active esters. A target level of ˜200RU was set as the goal for all each flow cell. Fc-fusion receptors, TR4 and TR2 at 5 μg/mL, were immobilized onto individual flow cells of a sensor chip. The amount applied varied from 8-14 μL. A 3-minute ethanolamine injection completed the immobilization experiment by inactivating the esters.
The kinetics cycles were performed as follows: The flow rate for the entire cycle was 25 μL/minute with the flow path including both the control (TR2) and experimental (TR4) flow cell at all times. A 1-minute buffer injection was applied to stabilize the baseline. The purified antibody (IgG1 antibody comprising the VH and VL domains of each of the T1014A04, T1014G03, T1014F08, and T14G04 scFvs) was diluted from 10 μg/mL (65 nM) to 0.115 μg/mL (0.75 nM) in running buffer and tested in duplicate. Each concentration was in contact with the control (TR2) and the experimental (TR4) flow cell during a 4-minute association and a 10-minute dissociation phase. Regeneration was performed using 25 mM NaOH from 5-12 μL depending on the sample concentration.
A double-reference subtraction was performed, which refers to the control flow cell subtraction for every cycle, in addition to a buffer cycle subtraction. The 1:1 Langmuir model was used for all evaluation fitting.

T3 sequence (O14763 52-184 limits assumed): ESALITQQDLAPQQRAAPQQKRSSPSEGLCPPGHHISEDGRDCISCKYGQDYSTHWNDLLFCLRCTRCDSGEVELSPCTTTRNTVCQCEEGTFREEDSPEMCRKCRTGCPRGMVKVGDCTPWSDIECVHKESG

| binding result [1] | binding result [2] | binding result [3] | Kd [4] | Binder |
| --- | --- | --- | --- | --- |
| no binding | no binding | no binding |  | scFv T1014B11 (scFv) scFv: EVQLVQSGAEVKKPGASVKVSCKISGDSFTAYFIHWLRQAPGEGLEWMGWFNPISGTAGSPQKFHGRVAMTRDTSISTAYMELTRLASDDTAIYYCARQHHSNTFDPWGQGTLVTVSSGGGGSGGGGSGGGGSAQSALTQPASVSGSPGQSITISCTGTNSDVGGYNYVSWYQQHPGKAPKLMIYEVNNRPSGVSNRFSGSKSGNTASLTISGLQADDEADYYCSSYTTSNTWVFGGGTKLTVLG |
| no binding | no binding | no binding |  | scFv T1014G04 (scFv) scFv: EVQLVQSGADVKRPGASVKVSCKISGDSFTAYFIHWVRQAPGQGLEWMGWFNPDSGTADSAQKFHGRVTMTRDTSSSTAFLELSRLRSDDTAVYYCVRQHRGNTFAPWGRGTLVTVSSGGGGSGGGGSGGGGSAQPVLTQPPSASGSPGQSVTISCTGTSSDVGSYEYVSWYQQHPGKAPRLMISEVNKRPSGVPNRFSGSKSGNTASLTVSGLQADDEADYYCSSYAGSNNWVFGGGTKVTVLG |
| no binding | no binding | no binding |  | scFv T1014A04 (scFv) scFv: EVQLVQSGADVKRPGASVKVSCKISGDSFNAYFIHWVRQAPGQGLEWMGWFNPDSGTADSAQKFHGRVTMTRDTSSSTAFLELSRLRSDDTAVYYCVRQHRGNTFAPWGRGTMVTVSSGGGGSGGGGSGGGGSAQSVLTQPPSASGSPGQSVTISCTGTTSDVGGYNYVSWYQQHPGKAPKLMIYGVNQRPSGVPDRFSGSKSGNTASLTVSGLQAEDEADYYCSSYAGSNNWVFGGGTKLTVLG |

Continued, binder first:

| Binder | binding result [1] | binding result [2] | binding result [3] | Kd [4] |
| --- | --- | --- | --- | --- |
| scFv T1014G03 (scFv) scFv: EVQLVQSGAEVKMPGASVKLSCRVSGDTFTAYFIHWVRQAPGQGLEWMGWFNPISGTAGSAEKFRGRVAMTRDTSISTAYMELNRLTFDDTAVYYCARQHRGNTFDPWGQGTLVTVSSGGGGSGGGGSGGGGSAQSALTQPASVSGSPGQSITISCTGTSSDIGAYKYVSWYQQHPGKAPKLVIYEVSNRPSGVSSRFSGSKSGQTASLTISGLQADDEADYYCNSYQGYNTWVFGGGTKVTVLG | no binding | no binding | no binding |  |
| IgG1 antibody comprising the VH and VL domains of the T1014A04 scFv (antibody, V domains shown, Whole IgG1; also called IgG1 format of T1014A04) VH: EVQLVQSGADVKRPGASVKVSCKISGDSFNAYFIHWVRQAPGQGLEWMGWFNPDSGTADSAQKFHGRVTMTRDTSSSTAFLELSRLRSDDTAVYYCVRQHRGNTFAPWGRGTMVTVSS VL: QSVLTQPPSASGSPGQSVTISCTGTTSDVGGYNYVSWYQQHPGKAPKLMIYGVNQRPSGVPDRFSGSKSGNTASLTVSGLQAEDEADYYCSSYAGSNNWVFGGGTKLTVLG |  |  |  | 468 pM |
| IgG1 antibody comprising the VH and VL domains of the T1014G04 scFv (antibody, V domains shown, Whole IgG1; also called T14G04) VH: EVQLVQSGADVKRPGASVKVSCKISGDSFTAYFIHWVRQAPGQGLEWMGWFNPDSGTADSAQKFHGRVTMTRDTSSSTAFLELSRLRSDDTAVYYCVRQHRGNTFAPWGRGTLVTVSS VL: QPVLTQPPSASGSPGQSVTISCTGTSSDVGSYEYVSWYQQHPGKAPRLMISEVNKRPSGVPNRFSGSKSGNTASLTVSGLQADDEADYYCSSYAGSNNWVFGGGTKVTVLG |  |  |  | 194 pM |
| scFv T1014F08 (scFv) scFv: EVQLVQSGAEVKKPGASVKLSCRVSGDTFTAYFIHWVRQAPGQGPEWMGWFNPISGTAGSAARFRGRVAMTRDTSISTAYMELNRLTFDDTAVYYCARQHRGNTFDPWGKGTLVTVSSGGGGSGGGGSGGGGSALPVLTQPPSASGSPGQSVTISCTGTSSDVGGYKYVSWYQQHPGKAPKLMIYEVSMRPSGVPDRFSGSKSGNTASLTVSGLQAEDEADYYCASYAGSNNWVFGGGTKLTVLG | no binding | no binding | no binding |  |
| IgG1 antibody comprising the VH and VL domains of the T1014G03 scFv (antibody, V domains shown, Whole IgG1) VH: EVQLVQSGAEVKMPGASVKLSCRVSGDTFTAYFIHWVRQAPGQGLEWMGWFNPISGTAGSAEKFRGRVAMTRDTSISTAYMELNRLTFDDTAVYYCARQHRGNTFDPWGQGTLVTVSS VL: QSALTQPASVSGSPGQSITISCTGTSSDIGAYKYVSWYQQHPGKAPKLVIYEVSNRPSGVSSRFSGSKSGQTASLTISGLQADDEADYYCNSYQGYNTWVFGGGTKVTVLG |  |  |  | 554 pM |
